Experiment: D-arabinitol oxidase enzyme activity assay (H2O2 formation coupled to horse radish peroxidase/TMB, absorbance at 650 nm)
Type: biochemical
Conditions: ratio of oxidase activity with sorbitol as substrate to DA as substrate; protein extracts from E. coli, 10 mM sugar alcohol, pH 6.5, 23° C.
Experimental: The D-arabinitol oxidase enzyme activity is assayed by the formation of H2O2 during the enzyme reaction (FIG. 1) as coupled with a peroxidase indicator reaction that catalyzes the oxidation of 3,3′,5,5′-tetramethylbenzidine hydrochloride (TMB), producing a colored product. An increase in absorbance is a direct measure of D-arabinitol oxidase activity. Enzyme activity is assayed in crude extracts and in purified protein preparations. […] In this reaction, formation of H2O2 results in the formation of blue color measurable by reading the absorbance at 650 nanometers (nm). Absorbance at 650 nm is followed kinetically using a Tecan Rainbow spectrophotometer at room temperature (23° C.). Milli-absorbance units per minute (mA/min) are calculated as the increase in absorbance at 650 nm/minute×1000. It is recognized that researchers skilled in the art may perform the assay as an end-point assay, by stopping reactions at various times with a solution of acid to produce a yellow color, and reading the absorbance at 450 nm. […]
DNA sequences encoding an SaOx protein (SEQ ID NO:3) are used as starting material for error prone PCR. Error-prone PCR is accomplished by performing PCR from DNA templates using a non-proof reading DNA polymerase such as Taq Polymerase, or by using a GeneMorph II Random Mutagenesis Kit (Stratagene). […]

B1: SaOX (wild type + His-tag): Streptomyces avermitilis oxidase (SEQ ID NO:4), wild type with C-terminal His-tag (STOP423LEHHHHHH) (protein, listed as Streptomyces avermitilis)
chain: MTDAGTALTNWAGNITYSAKELHRPQSLDALRALVADSAKVRVLGSGHSFNEIAEPGADGVLLSLTALPPSVEVDTAARTVRVAGGVRYAELARVVHGHGLALPNMASLPHISVAGSVATGTHGSGVTNGSLASAVREVELVTADGSAVRIGRGDDRFDGAVTALGALGVVTALTLDLEPDYRVAQQVFTELPLAGLDFDAVAASAYSVSLFTGWRTSGFAQVWLKRRTDRPSADFPWAAPATEAMHPVPGMPAVNCTQQFGVPGPWHERLPHFRAEFTPSSGAELQSEYLLPRPYALDALHALDAVRETVAPVLQICEVRTVAADAQWLSPAYGRDTVALHFTWVEDLAAVLPVVRRVEEALDPFDPRPHWGKVFAVPARVLRGRYPRLGDFRALVDSLDPGGKFTNAFVREVLGSGDRPS
modifications: C-terminal LEHHHHHH His-tag
Sorb/DA: 14.8
